± gives the uncertainty stated by the source.
Experiment: protein stability index of a GFP-peptide fusion (yeast GPS) (PSI 1-4); higher = more stable; sorted into four equal gates, so the index is relative within each strain
Summary of the method: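 The protein stability index of a peptide was calculated by multiplying its read frequency in each gate by that gate's number and adding the products. The peptides were tiled 17-residue stretches of yeast proteins, fused downstream of GFP on a Cherry-expressing plasmid and carried in yeast as a pooled library. Mid-log cultures in leucine-free medium were sorted into four equal gates by GFP/Cherry ratio, and each gate's plasmids were PCR-amplified and Illumina-sequenced.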

Sequence	protein stability index (doa10∆)	protein stability index (pdr5∆)	protein stability index (san1∆)	protein stability index (ubr1∆)
QTGIFVYQNNITPSAMK [RPB5]	3.06 ± 0.091	2.55 ± 0.16	3.11 ± 0.075	3.36 ± 0.12
TTTSNTSGTNIAGTFNV [YOR098C/NUP1]	3 ± 0.05	2.54 ± 0.037	2.5 ± 0.051	2.24 ± 0.028
NKVGSTGSLMGGNSTQN [YGR119C/NUP57]	3.02 ± 0.076	3.38 ± 0.098	3.19 ± 0.059	3.17 ± 0.053
SAFACKTDEVIILGTNL [BRR2]	2.86 ± 0.054	3 ± 0.043	2.94 ± 0.04	2.9 ± 0.035
DINQAKDFIENVNNRFD [BRN1]	3.25 ± 0.12	3.23 ± 0.086	3.3 ± 0.067	3.08 ± 0.056
NSLFYLKWSACTSLMDI [IRR1]	1.68 ± 0.073	2.31 ± 0.047	1.61 ± 0.13	1.83 ± 0.042
SAGRIESNNPSHDASRS [SIR4]	2.85 ± 0.21	2.3 ± 0.11		2.98 ± 0.17
APTLSQTYINQELGFCE [SSN2]	2.85 ± 0.18	2.81 ± 0.16	1.95 ± 0.22	2.92 ± 0.18
VNYRHFKAMEDVIAWKN [ITC1]	2.98 ± 0.15	3.36 ± 0.17	3.27 ± 0.077	3.37 ± 0.065
PIFNYIFTEKIYKSIFN [YJL039C/NUP192]	1.33 ± 0.034	1.46 ± 0.04	1.41 ± 0.074	1.16 ± 0.039
IQSKAVEQGYEDAFNFW [YCG1]	3.37 ± 0.13	3.33 ± 0.17	3.57 ± 0.12	
EGEPVNSPNYFVAKLAA [COR1]	3.31 ± 0.16	3.16 ± 0.14	3.37 ± 0.13	3.14 ± 0.17
NSDIANLRTQVTQQKRS [SMC1]	3.05 ± 0.074	3.1 ± 0.055	2.97 ± 0.062	3.08 ± 0.066
RLRQFNLQPISTPENVP [SMC4]	1.69 ± 0.081	1.76 ± 0.067	1.61 ± 0.14	1.73 ± 0.052
AASTPTTTATPHANPIT [PGD1]	2.91 ± 0.044	2.85 ± 0.035	2.92 ± 0.038	2.916 ± 0.026
FMKKLRAAKLAAPENEK [RPS15]	2.85 ± 0.14	3.25 ± 0.17	2.48 ± 0.11	3.48 ± 0.22
TKENLEVSGENVVEADL [QCR2]	3.33 ± 0.27	3.6 ± 0.09	3.52 ± 0.1	2.8 ± 0.14
EYKKHFPPNLEKGENPS [UBP6]	2.9 ± 0.097	2.76 ± 0.055	2.42 ± 0.073	1.93 ± 0.053
LSASWDKTLRLWDVATG [ASC1]	3.52 ± 0.22	3.22 ± 0.12		3.41 ± 0.072
QLGYIENSFYKKEASKT [POP1]	2.27 ± 0.061	2.43 ± 0.058	2.43 ± 0.056	2.39 ± 0.044
GTPLFTFGKKADVTSNI [YOR098C/NUP1]	1.82 ± 0.05	1.92 ± 0.046	1.51 ± 0.11	2.18 ± 0.036
SSFKEDCLSFAPTLSQT [SSN2]	2.7 ± 0.084	2.67 ± 0.1	3.03 ± 0.086	2.91 ± 0.052
RSWTLTSEMKVLSIPPA [YGL100W/SEH1]	2.13 ± 0.054	2.18 ± 0.069	2.37 ± 0.064	2.1 ± 0.072
LSFIQVRIDLGTIDKLQ [RPO31]	1.37 ± 0.056	1.71 ± 0.056	2.06 ± 0.077	2.67 ± 0.047
AIVFEEIKNWISDIPYV [YMR129W/POM152]	1.36 ± 0.043	1.42 ± 0.045	1.36 ± 0.075	1.72 ± 0.054
PERWLPLRDRSTYRPKK [SRP72]	3.29 ± 0.2	3.05 ± 0.22	2.89 ± 0.2	3.64 ± 0.28

Sequence	protein stability index (doa10∆)	protein stability index (pdr5∆)	protein stability index (san1∆)	protein stability index (ubr1∆)
LLKEEKIIELMNKIFTI [YML103C/NUP188]	2.81 ± 0.088	1.57 ± 0.097	1.26 ± 0.15	1.79 ± 0.25
KDENNTANDQYSSILGN [YCG1]	3.02 ± 0.047	3.2 ± 0.046	3.01 ± 0.032	3.08 ± 0.034
ILKTLERSICALGEFAD [YML031W/NDC1]	2.58 ± 0.053	3.04 ± 0.075	3.05 ± 0.065	2.78 ± 0.05
EQRKQKLSKILPRYQEL [SMC3]	3.22 ± 0.12	3.1 ± 0.1	3.01 ± 0.096	3.12 ± 0.1
AALAPKIGPLGLSPKKV [RPL12A]	2.66 ± 0.13	3.08 ± 0.097	3.02 ± 0.097	3.26 ± 0.07
LDSQETPSTEESRAQNV [SWI3]	2.41 ± 0.091	2.38 ± 0.12	3.16 ± 0.089	2.37 ± 0.051
NDICSVENYETSSAFFY [SIR4]	2.82 ± 0.046	2.88 ± 0.051	2.64 ± 0.05	2.77 ± 0.053
FSEEKAEEFDFNVPVVS [YAR002W/NUP60]	2.48 ± 0.18	1.34 ± 0.16	1.3 ± 0.13	1.15 ± 0.12
PSLYRLLNILITYGIIK [SRB8]	1.37 ± 0.12	1.07 ± 0.12		1.04 ± 0.044
YRRLFAKRLIHGTSTSA [CDC53]	1.44 ± 0.11	1.36 ± 0.11		
DKFFNEVNKSELYLTAE [SIR3]	3.43 ± 0.13	3.55 ± 0.13	3.23 ± 0.085	3.58 ± 0.12
ILIESRIHRLARYYRTV [RPS13]	2.45 ± 0.11	2.06 ± 0.06	2.74 ± 0.087	2.1 ± 0.051
EYIELEYRDLYTNSVEL [YMR129W/POM152]	3.16 ± 0.11	3.28 ± 0.096	3.27 ± 0.085	
KGRSYAYFMVGAMGLLS [RIP1]	2.39 ± 0.11	2.82 ± 0.12	3.16 ± 0.2	2.98 ± 0.074
DRQCMIMDELLSSIAER [DIB1]	2.7 ± 0.066	2.78 ± 0.053	2.88 ± 0.061	2.68 ± 0.052
KEVIELPVKHPELFESL [RPT6]	2.98 ± 0.064	3.04 ± 0.036	3.05 ± 0.054	3.09 ± 0.055
GRDTTDYLKNIIVENSG [RPN2]	3.21 ± 0.13	2.83 ± 0.17	3.34 ± 0.12	3.4 ± 0.23
EEEATMTTSAVSPTVGK [YIL149C/MLP2]	3.25 ± 0.046	3.3 ± 0.037	3.229 ± 0.029	3.2 ± 0.035
DDVISNAGTNDNSFNEL [MCD1]	3.31 ± 0.15	3.37 ± 0.12	3.31 ± 0.06	3.44 ± 0.084
INVDNDPFFAQSEDLSH [YML103C/NUP188]	3.15 ± 0.055	3.08 ± 0.056	3.15 ± 0.044	3.05 ± 0.046
RSLATAVATPKAEVTQL [COR1]	2.99 ± 0.1	3.09 ± 0.13	2.98 ± 0.092	2.89 ± 0.042
RAYMRPLGVILTFVSVD [SCL1]	1.74 ± 0.049	1.81 ± 0.044	2.05 ± 0.083	2.16 ± 0.04
RANVYVGFLVQLDLTGI [PRP8]	2.5 ± 0.05	2.13 ± 0.052	2.21 ± 0.057	2.45 ± 0.05
DQYIQKQVQISHHLKAD [YGL172W/NUP49]	2.78 ± 0.076	2.71 ± 0.092	2.6 ± 0.072	3.07 ± 0.057
MTLKEMYQMITMGGNAE [SMC4]	2.72 ± 0.065	2.41 ± 0.056	2.44 ± 0.058	2.77 ± 0.068
FINNVLSNPSNQNICTS [GRR1]	2.42 ± 0.074	2.31 ± 0.033	2.53 ± 0.054	2.47 ± 0.037

Sequence	protein stability index (doa10∆)	protein stability index (pdr5∆)	protein stability index (san1∆)	protein stability index (ubr1∆)
EEAGEEEAKEEVTEEQA [RPS0A]	3.48 ± 0.12	3.5 ± 0.1	3.02 ± 0.13	3.64 ± 0.092
DELCKLVTCEGSEEKAF [SRP54]	2.92 ± 0.18	2.3 ± 0.18	1.95 ± 0.18	2.25 ± 0.13
ILRDYGPQEAANAMNRM [RPO31]		1.83 ± 0.26	2.86 ± 0.22	
EVLTYVNYLISNTMYSV [YJL039C/NUP192]	2.45 ± 0.056	2.35 ± 0.054	2.45 ± 0.044	2.5 ± 0.042
KREIQEALSEKPTREPT [RPC53]	2.96 ± 0.11	2.86 ± 0.098	3.05 ± 0.11	3.15 ± 0.1
CSSATVPKHMLDKLDEI [AAR2]	2.79 ± 0.069	3.05 ± 0.088	2.98 ± 0.08	3.2 ± 0.067
SMTAVPKPLKFLRPTYP [RPN1]	2.33 ± 0.058	2.21 ± 0.064	1.85 ± 0.069	2.47 ± 0.064
KFLKIASLKHDNETKAM [RPN3]	2.75 ± 0.1	3.16 ± 0.13	2.76 ± 0.1	3.17 ± 0.12
TVQSWLCDLFVNGSITD [NUT1]	1.46 ± 0.038	1.45 ± 0.048	1.48 ± 0.086	1.23 ± 0.043
SYFLQERYFDCCTKFFT [PCI8]	1.54 ± 0.069	1.52 ± 0.059	1.76 ± 0.08	2.13 ± 0.044
QRQKTYVERFETQLKVV [SMC1]	1.73 ± 0.065	2.51 ± 0.08	1.23 ± 0.2	1.24 ± 0.061
SSLLYTYDENDDFFKEL [ESC2]	2.52 ± 0.13	2.8 ± 0.17	2.62 ± 0.15	2.87 ± 0.094
GQSAGKLAAIVEIIDQK [RPL14A]	3.28 ± 0.098	3.29 ± 0.11	2.82 ± 0.11	3.41 ± 0.066
IFALVFSSNERYFFWLQ [RPN13]	1.25 ± 0.046	1.61 ± 0.07	1.65 ± 0.08	1.87 ± 0.046
TVKLTEIVWTSSLIKAG [RPO31]	1.48 ± 0.058	1.69 ± 0.067	1.24 ± 0.14	1.24 ± 0.063
NEYPVADAVTKDLKLRR [REC8]	3.08 ± 0.1	3.23 ± 0.095	3.28 ± 0.038	3.23 ± 0.041
RFTKFSDTLKEFKIEQN [YDL116W/NUP84]	1.74 ± 0.076	1.74 ± 0.081	1.42 ± 0.18	1.45 ± 0.058
WKYEDVVAKLEDKRKVR [RPL16B]	3.12 ± 0.064	2.32 ± 0.059	2.36 ± 0.093	2.02 ± 0.045
GGALDNPFEDDMDGVDF [BRN1]	3.39 ± 0.054	3.32 ± 0.077	3.4 ± 0.039	3.41 ± 0.057
IWVGEWKEVLAHNPELE [RPO31]	3 ± 0.087	2.36 ± 0.078	2.74 ± 0.072	2.74 ± 0.053
LHYIPKYNRYEKRHKNV [RPS11A]	2.06 ± 0.063	1.74 ± 0.054	1.78 ± 0.089	2.26 ± 0.05
VFALHKYKPTPLYVMDE [SMC4]	2.6 ± 0.081	2.85 ± 0.12	3.09 ± 0.076	3.07 ± 0.056
SLGIRPCLRKYEEFRDV [RRP43]	3.27 ± 0.19		3.21 ± 0.18	2.96 ± 0.076
AKSNEDKQDGTAKPAFS [YJL041W/NSP1]	3.03 ± 0.23	3.44 ± 0.13	3.29 ± 0.17	2.96 ± 0.29
FTNRSTMMANFEEWIKM [BRN1]	2.12 ± 0.18	2.31 ± 0.19	2.32 ± 0.1	2.65 ± 0.054

— the supplement of paper PMC9732359
